Results from PMC10760634.

Legend:
[1] = biological target: the PHD and PHF7 (KD values in the range of 3–6 µM); experiment: MST
[2] = biological target: UBE2D2∼Ub (ubiquitin-conjugated UBE2D2 S22R/C85K) (UniProt P62837); experiment: ITC
[3] = biological target: UBE2D2∼Ub (ubiquitin-conjugated UBE2D2 S22R/C85K) (UniProt P62837); experiment: SEC

PHF7 (mPHF7 28–307), sequence (Q9DAG9 28-307): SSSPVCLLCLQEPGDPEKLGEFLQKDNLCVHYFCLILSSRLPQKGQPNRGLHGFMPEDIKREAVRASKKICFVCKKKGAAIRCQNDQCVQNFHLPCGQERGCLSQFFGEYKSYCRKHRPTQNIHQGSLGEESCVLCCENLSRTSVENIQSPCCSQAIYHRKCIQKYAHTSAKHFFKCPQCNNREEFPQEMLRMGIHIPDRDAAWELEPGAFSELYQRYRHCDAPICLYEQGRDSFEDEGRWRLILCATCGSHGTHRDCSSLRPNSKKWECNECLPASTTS

Substance: H3K4me2(1–44) (from UniProt P84233 2-45) (peptide)
- Kd [1]: 3000 to 6000 nM

Substance: PHF7 (mPHF7 28–307) (from UniProt Q9DAG9 28-307) (domain or fragment)
- Kd [2]: 400 nM
- fold stronger affinity than for UBE2D2 alone [2]: 3 fold
- stoichiometry N [3]: 1

Substance: PHF7 RING–PHD (150–307) C164A (from UniProt Q9DAG9 150-307) (domain or fragment)
- fold lower affinity than PHF7 [2]: 7 fold
